The target of test [1] is T1, DV2 sE(1–395), postfusion trimer (dengue virus type 2, UniProt P12823). Nature of the test: FP.
The target in test [2] is T1, DV2 sE(1–395), postfusion trimer. The test is described as follows: FP. The source holds these as a separate data set.

Where two headings read alike, the source gives them in different places. Ends that are not written are not given here. * marks the point of attachment. FITC = O=C1OC2(c3ccc(O)cc3Oc3cc(O)ccc32)c2ccc(NC(=S)*)cc21; βAla = NCCC(=O)O

The Kd is the equilibrium constant for the complex coming apart. Lower therefore signals tighter binding.

Regarding AILGDTAWDFGSLGGVFTSIGKALHQVFGAIYGAA [stem peptide DV2^413–447], binding in test [1] was put at a Kd of 275 nM.

Consider {FITC-βAla}-AWDFGSLGGVFTSIGKALHQVFGAIYGAA [FITC-conjugated stem peptide DV2^419–447], for which the Kd in test [2] was 125 nM.

Turning to {FITC-βAla}-AWDFGSLGGVFTSIGKALHQVF [FITC-conjugated stem peptide DV2^419–440], binding in test [2] was put at a Kd of 250 nM.

These data come from PMC2851732 (2010).
